Reference: PMC12463876, “AI-assisted design of ligands for lipocalin-2” (Frontiers in Immunology, 2025)

Target: T1, Recombinant human lipocalin-2 (LCN2) (human, UniProt P80188 21-198)
T1 construct: Lipocalin-2 (LCN2), human, recombinant; neither is said to be the construct used; also called neutrophil gelatinase-associated lipocalin; siderocalin; source: produced and purified by GenScript
Test: SPR; MinP-2 immobilised by amine coupling on a CM5 chip (Biacore 8K); LCN2 injected at 7.8, 15.6, 31.2, 62.5 and 125 nM, 30 uL/min, contact 120 s, dissociation 600 s; 25 °C; 1:1 model
Details: both partners purified

T1 sequence (P80188 21-198): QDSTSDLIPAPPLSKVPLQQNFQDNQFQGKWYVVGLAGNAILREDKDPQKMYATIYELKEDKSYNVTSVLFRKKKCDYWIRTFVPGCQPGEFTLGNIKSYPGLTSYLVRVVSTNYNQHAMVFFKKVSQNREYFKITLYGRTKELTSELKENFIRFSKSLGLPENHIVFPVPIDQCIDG

B1: MinP-2 (designed binder)
chain: MSKATVYDVSTGKTYEVSLEDAKKLASYAVYEGGYPLRISVAPEDTKAILDAIKNTSKEKAEEGKKLLEELN
notes: de novo miniprotein (RFdiffusion, ProteinMPNN) designed against LCN2; Cloned into pET30b with a Twin-Strep tag; also called MiniP-2; source: E. coli BL21 (DE3) pLysS, purified (Strep-Tactin XT magnetic beads, dialysis)
Question: For B1, which Kd is on record?
Answer: Its Kd is 4.2 nM.
